What is called stoichiometry N is a count of units in the complex or per binding partner.

This note sets out measurements from paper PMC13226650, “Non-decameric NLRP3 reveals a TGN/MTOC-distal pathway of inflammasome activation” (Nature Communications, 2026).

Series [1] deals with the molecule itself. Description: SEC-MALS; peak 2 fractions (C7-D4) pooled, 1.3 mg/mL; Superose 6 Increase 10/300 GL in lysis buffer (50 mM HEPES pH 7.5, 150 mM NaCl, 0.5 mM TCEP, 10 mM MgCl2, 1 mM ADP); 0.5 mL/min. (In general: In gel filtration, larger molecules generally elute earlier.)
Series [2] concerns the molecule itself. As to the kind of experiment: SEC + other: negative-stain EM; Superose 6 Increase 10/300 GL in 50 mM HEPES pH 7.5, 150 mM NaCl, 0.5 mM TCEP, 10 mM MgCl2, 1 mM ADP; elution against a gel filtration standard; SEC fractions of peak 2 imaged after 2 % uranyl acetate stain.

B1: MBP-NLRP3(Δexon3) (natural protein, human, UniProt Q96P20 3-1036, looked up)
chain: MASTRCKLARYLEDLEDVDLKKFKMHLEDYPPQKGCIPLPRGQTEKADHVDLATLMIDFNGEEKAWAMAVWIFAAINRRDLYEKAKRDEPKWDYRKKYRKYVRSRFQCIEDRNARLGESVSLNKRYTRLRLIKEHRSQQEREQELLAIGKTKTCESPVSPIKMELLFDPDDEHSEPVHTVVFQGAAGIGKTILARKMMLDWASGTLYQDRFDYLFYIHCREVSLVTQRSLGDLIMSCCPDPNPPIHKIVRKPSRILFLMDGFDELQGAFDEHIGPLCTDWQKAERGDILLSSLIRKKLLPEASLLITTRPVALEKLQHLLDHPRHVEILGFSEAKRKEYFFKYFSDEAQARAAFSLIQENEVLFTMCFIPLVCWIVCTGLKQQMESGKSLAQTSKTTTAVYVFFLSSLLQPRGGSQEHGLCAHLWGLCSLAADGIWNQKILFEESDLRNHGLQKADVSAFLRMNLFQKEVDCEKFYSFIHMTFQEFFAAMYYLLEEEKEGRTNVPGSRLKLPSRDVTVLLENYGKFEKGYLIFVVRFLFGLVNQERTSYLEKKLSCKISQQIRLELLKWIEVKAKAKKLQIQPSQLELFYCLYEMQEEDFVQRAMDYFPKIEINLSTRMDHMVSSFCIENCHRVESLSLGFLHNMPKEEEEEEKEGRHLDMVQCVLPSSSHAACSHGLVNSHLTSSFCRGLFSVLSTSQSLTELDLSDNSLGDPGMRVLCETLQHPGCNIRRLWLGRCGLSHECCFDISLVLSSNQKLVELDLSDNALGDFGIRLLCVGLKHLLCNLKKLWLVSCCLTSACCQDLASVLSTSHSLTRLYVGENALGDSGVAILCEKAKNPQCNLQKLGLVNSGLTSVCCSALSSVLSTNQNLTHLYLRGNTLGDKGIKLLCEGLLHPDCKLQVLELDNCNLTSHCCWDLSTLLTSSQSLRKLSLGNNDLGDLGVMMFCEVLKQQSCLLQNLGLSEMYFNYETKSALETLQEEKPELTVVFEPSW
notes: NLRP3, human, UniProt Q96P20, residues 3-1036 with the linker region encoded by exon 3 (residues 95-134) deleted; a TEV site stands between MBP and NLRP3; Calculated mass of the MBP-NLRP3(Δexon3) monomer is printed as 154.8 kDa; also called MBP-NLRP3 (∆95-134); source: baculovirus-infected Sf9 insect cells, purified (MBP-trap, SEC on Superose 6 Increase); not shown: MBP, N-terminal, kept
For the protein B1, the “stoichiometry N” value in series [1] came out at 2.

B2: MBP-NLRP3(Δexon3) + GSGAGG linker (natural protein, human)
chain: MASTRCKLARYLEDLEDVDLKKFKMHLEDYPPQKGCIPLPRGQTEKADHVDLATLMIDFNGEEKAWAMAVWIFAAINRRDLYEKAKRDEPKWGSGAGGDYRKKYRKYVRSRFQCIEDRNARLGESVSLNKRYTRLRLIKEHRSQQEREQELLAIGKTKTCESPVSPIKMELLFDPDDEHSEPVHTVVFQGAAGIGKTILARKMMLDWASGTLYQDRFDYLFYIHCREVSLVTQRSLGDLIMSCCPDPNPPIHKIVRKPSRILFLMDGFDELQGAFDEHIGPLCTDWQKAERGDILLSSLIRKKLLPEASLLITTRPVALEKLQHLLDHPRHVEILGFSEAKRKEYFFKYFSDEAQARAAFSLIQENEVLFTMCFIPLVCWIVCTGLKQQMESGKSLAQTSKTTTAVYVFFLSSLLQPRGGSQEHGLCAHLWGLCSLAADGIWNQKILFEESDLRNHGLQKADVSAFLRMNLFQKEVDCEKFYSFIHMTFQEFFAAMYYLLEEEKEGRTNVPGSRLKLPSRDVTVLLENYGKFEKGYLIFVVRFLFGLVNQERTSYLEKKLSCKISQQIRLELLKWIEVKAKAKKLQIQPSQLELFYCLYEMQEEDFVQRAMDYFPKIEINLSTRMDHMVSSFCIENCHRVESLSLGFLHNMPKEEEEEEKEGRHLDMVQCVLPSSSHAACSHGLVNSHLTSSFCRGLFSVLSTSQSLTELDLSDNSLGDPGMRVLCETLQHPGCNIRRLWLGRCGLSHECCFDISLVLSSNQKLVELDLSDNALGDFGIRLLCVGLKHLLCNLKKLWLVSCCLTSACCQDLASVLSTSHSLTRLYVGENALGDSGVAILCEKAKNPQCNLQKLGLVNSGLTSVCCSALSSVLSTNQNLTHLYLRGNTLGDKGIKLLCEGLLHPDCKLQVLELDNCNLTSHCCWDLSTLLTSSQSLRKLSLGNNDLGDLGVMMFCEVLKQQSCLLQNLGLSEMYFNYETKSALETLQEEKPELTVVFEPSW
notes: NLRP3, human, UniProt Q96P20, residues 3-94 (before the deleted exon 3 linker 95-134); short flexible linker that replaces residues 95-134; NLRP3, human, UniProt Q96P20, residues 135-1036 (after the deleted exon 3 linker 95-134); also called ∆95-134 + linker (GSGAGG); source: baculovirus-infected Sf9 insect cells, purified (MBP-trap, SEC on Superose 6 Increase); not shown: MBP, N-terminal, kept
On to B2, for which the binding result in series [2] is “binds”.
